The results in this text go back to the supplement of paper PMC5998384.

Data set [1] has as its system HeLa Kyoto. Put plainly: solubility in G1/S (NP-40 vs SDS abundance) (log2 ratio); higher = more soluble. As to conditions: cell cycle stage: G1/S.
The test system of data set [2] is HeLa Kyoto. Nature of the data set: melting temperature (median over replicates), in situ; higher = more thermally stable.
The test system of data set [3] is HeLa Kyoto. Nature of the data set: solubility change mitosis vs G1/S (difference of NP-40 vs SDS log2 ratios) (log2 ratio difference); higher = more soluble in mitosis.
Data set [4] concerns HeLa Kyoto. Nature of the data set: thermal stability score vs G1/S (z-score of summed log2 fold changes over temperatures); higher = more thermally stable than in G1/S.
Setting [5] is: cell cycle stage: early G1 (4.5 h after nocodazole release).
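Throughout, for melting temperature (median over replicates), in situ: HeLa Kyoto cells synchronized by double thymidine or nocodazole block, proteins quantified by TMT10plex mass spectrometry, three independent biological replicates.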
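Throughout, for solubility change mitosis vs G1/S (difference of NP-40 vs SDS log2 ratios): synchronized HeLa Kyoto cells (double thymidine block for G1/S, nocodazole release for mitosis), protein amounts in NP-40 versus SDS lysates quantified by mass spectrometry, three biological replicates.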
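Throughout, for solubility in G1/S (NP-40 vs SDS abundance): HeLa Kyoto cells arrested at G1/S by double thymidine block, proteins quantified by TMT10plex mass spectrometry in mild NP-40 versus SDS extracts, three biological replicates.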
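Throughout, for thermal stability score vs G1/S (z-score of summed log2 fold changes over temperatures): synchronized HeLa Kyoto cells, proteins quantified by TMT10plex mass spectrometry, three biological replicates, mitosis taken 0.5 h after nocodazole release, G1/S directly after double thymidine block.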

ADCK3, sequence (chain, as listed by the source): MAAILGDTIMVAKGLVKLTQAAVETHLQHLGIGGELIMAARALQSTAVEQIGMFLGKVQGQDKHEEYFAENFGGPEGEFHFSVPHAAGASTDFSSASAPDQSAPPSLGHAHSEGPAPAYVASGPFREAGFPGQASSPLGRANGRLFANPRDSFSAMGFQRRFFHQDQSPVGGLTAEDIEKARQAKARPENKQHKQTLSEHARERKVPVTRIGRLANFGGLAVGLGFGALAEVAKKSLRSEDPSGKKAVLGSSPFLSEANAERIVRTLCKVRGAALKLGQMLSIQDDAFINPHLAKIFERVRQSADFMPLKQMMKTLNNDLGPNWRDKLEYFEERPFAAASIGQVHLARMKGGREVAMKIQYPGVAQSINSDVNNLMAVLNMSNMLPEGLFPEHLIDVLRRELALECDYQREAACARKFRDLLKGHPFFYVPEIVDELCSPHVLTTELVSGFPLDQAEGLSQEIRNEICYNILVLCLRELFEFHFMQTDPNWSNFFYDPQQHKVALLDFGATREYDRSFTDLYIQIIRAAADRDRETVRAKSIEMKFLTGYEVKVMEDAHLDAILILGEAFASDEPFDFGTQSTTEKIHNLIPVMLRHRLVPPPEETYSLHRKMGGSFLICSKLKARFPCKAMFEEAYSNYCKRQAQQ

With “MSLDIQSLDIQCEELSDARWAELLPLLQQCQVVRLDDCGLTEARCKDISSALRVNPALAELNLRSNELGDVGVHCVLQGLQTPSCKIQKLSLQNCCLTGAGCGVLSSTLRTLPTLQELHLSDNLLGDAGLQLLCEGLLDPQCRLEKLQLEYCSLSAASCEPLASVLRAKPDFKELTVSNNDINEAGVRVLCQGLKDSPCQLEALKLESCGVTSDNCRDLCGIVASKASLRELALGSNKLGDVGMAELCPGLLHPSSRLRTLWIWECGITAKGCGDLCRVLRAKESLKELSLAGNELGDEGARLLCETLLEPGCQLESLWVKSCSFTAACCSHFSSVLAQNRFLLELQISNNRLEDAGVRELCQGLGQPGSVLRVLWLADCDVSDSSCSSLAATLLANHSLRELDLSNNCLGDAGILQLVESVRQPGCLLEQLVLYDIYWSEEMEDRLQALEKDKPSLRVIS [RNH1]”, the “solubility in G1/S (log2)” value in data set [1] was found to be 0.188. For the same substance, the melting temperature in data set [2] (cell cycle stage: G1/S) and in data set [2] (cell cycle stage: mitosis) was 52.8 °C throughout. The “solubility change mitosis (log2)” value in data set [3] was -0.113. The results for the thermal stability score in data set [4] (setting [5]) and in data set [4] (cell cycle stage: mitosis) were 1.78 and 1.35, respectively.

As for “MAPARCFSARLRTVFQGVGHWALSTWAGLKPSRLLPQRASPRLLSVGRADLAKHQELPGKKLLSEKKLKRYFVDYRRVLVCGGNGGAGASCFHSEPRKEFGGPDGGDGGNGGHVILRVDQQVKSLSSVLSRYQGFSGEDGGSKNCFGRSGAVLYIRVPVGTLVKEGGRVVADLSCVGDEYIAALGGAGGKGNRFFLANNNRAPVTCTPGQPGQQRVLHLELKTVAHAGMVGFPNAGKSSLLRAISNARPAVASYPFTTLKPHVGIVHYEGHLQIAVADIPGIIRGAHQNRGLGSAFLRHIERCRFLLFVVDLSQPEPWTQVDDLKYELEMYEKGLSARPHAIVANKIDLPEAQANLSQLRDHLGQEVIVLSALTGENLEQLLLHLKVLYDAYAEAELGQGRQPLRW [MTG2]”, in data set [1], the “solubility in G1/S (log2)” value came out at 0.239. Besides, the melting temperature in data set [2] (cell cycle stage: G1/S) was determined as 49.6 °C; in data set [2] (cell cycle stage: mitosis), 49.1 °C. Besides, the “solubility change mitosis (log2)” value in data set [3] is 0.00581. Besides, the thermal stability score in data set [4] (setting [5]) is -0.446; in data set [4] (cell cycle stage: mitosis), 0.103.

For the substance “MAEGGGCRERPDAETQKSELGPLMRTTLQRGAQWYLIDSRWFKQWKKYVGFDSWDMYNVGEHNLFPGPIDNSGLFSDPESQTLKEHLIDELDYVLVPTEAWNKLLNWYGCVEGQQPIVRKVVEHGLFVKHCKVEVYLLELKLCENSDPTNVLSCHFSKADTIATIEKEMRKLFNIPAERETRLWNKYMSNTYEQLSKLDNTVQDAGLYQGQVLVIEPQNEDGTWPRQTLQSKSSTAPSRNFTTSPKSSASPYSSVSASLIANGDSTSTCGMHSSGVSRGGSGFSASYNCQEPPSSHIQPGLCGLGNLGNTCFMNSALQCLSNTAPLTDYFLKDEYEAEINRDNPLGMKGEIAEAYAELIKQMWSGRDAHVAPRMFKTQVGRFAPQFSGYQQQDSQELLAFLLDGLHEDLNRVKKKPYLELKDANGRPDAVVAKEAWENHRLRNDSVIVDTFHGLFKSTLVCPECAKVSVTFDPFCYLTLPLPLKKDRVMEVFLVPADPHCRPTQYRVTVPLMGAVSDLCEALSRLSGIAAENMVVADVYNHRFHKIFQMDEGLNHIMPRDDIFVYEVCSTSVDGSECVTLPVYFRERKSRPSSTSSASALYGQPLLLSVPKHKLTLESLYQAVCDRISRYVKQPLPDEFGSSPLEPGACNGSRNSCEGEDEEEMEHQEEGKEQLSETEGSGEDEPGNDPSETTQKKIKGQPCPKRLFTFSLVNSYGTADINSLAADGKLLKLNSRSTLAMDWDSETRRLYYDEQESEAYEKHVSMLQPQKKKKTTVALRDCIELFTTMETLGEHDPWYCPNCKKHQQATKKFDLWSLPKILVVHLKRFSYNRYWRDKLDTVVEFPIRGLNMSEFVCNLSARPYVYDLIAVSNHYGAMGVGHYTAYAKNKLNGKWYYFDDSNVSLASEDQIVTKAAYVLFYQRRDDEFYKTPSLSSSGSSDGGTRPSSSQQGFGDDEACSMDTN [USP4]”, the “solubility in G1/S (log2)” value in data set [1] worked out at 0.0816. For the same substance, the melting temperature in data set [2] (cell cycle stage: G1/S) was 48.4 °C; in data set [2] (cell cycle stage: mitosis), 48.5 °C. Moreover, the “solubility change mitosis (log2)” value in data set [3] is -0.278. The thermal stability score amounted to 0.154 in data set [4] (setting [5]) and 0.64 in data set [4] (cell cycle stage: mitosis).

ADCK3: the “solubility in G1/S (log2)” value in data set [1] turned out to be 0.231. The melting temperature in data set [2] (cell cycle stage: G1/S) was found to be 51.1 °C; in data set [2] (cell cycle stage: mitosis) it was 50 °C. For the same substance, in data set [3], the “solubility change mitosis (log2)” value was -0.0659. Besides, the thermal stability score is 0.477 in data set [4] (setting [5]) and -0.51 in data set [4] (cell cycle stage: mitosis).

As to “MAASSLEQKLSRLEAKLKQENREARRRIDLNLDISPQRPRPTLQLPLANDGGSRSPSSESSPQHPTPPARPRHMLGLPSTLFTPRSMESIEIDQKLQEIMKQTGYLTIGGQRYQAEINDLENLGEMGSGTCGQVWKMRFRKTGHVIAVKQMRRSGNKEENKRILMDLDVVLKSHDCPYIVQCFGTFITNTDVFIAMELMGTCAEKLKKRMQGPIPERILGKMTVAIVKALYYLKEKHGVIHRDVKPSNILLDERGQIKLCDFGISGRLVDSKAKTRSAGCAAYMAPERIDPPDPTKPDYDIRADVWSLGISLVELATGQFPYKNCKTDFEVLTKVLQEEPPLLPGHMGFSGDFQSFVKDCLTKDHRKRPKYNKLLEHSFIKRYETLEVDVASWFKDVMAKTESPRTSGVLSQPHLPFFR [MAP2K7]”, the “solubility in G1/S (log2)” value in data set [1] worked out at 0.237. Further, the results for the melting temperature in data set [2] (cell cycle stage: G1/S) and in data set [2] (cell cycle stage: mitosis) were 49.9 °C and 50 °C, respectively. Further, in data set [3], the “solubility change mitosis (log2)” value was 0.0421. Moreover, the thermal stability score in data set [4] (setting [5]) was 1.35; in data set [4] (cell cycle stage: mitosis) it was 1.39.

Turning to “MCSLGLFPPPPPRGQVTLYEHNNELVTGSSYESPPPDFRGQWINLPVLQLTKDPLKTPGRLDHGTRTAFIHHREQVWKRCINIWRDVGLFGVLNEIANSEEEVFEWVKTASGWALALCRWASSLHGSLFPHLSLRSEDLIAEFAQVTNWSSCCLRVFAWHPHTNKFAVALLDDSVRVYNASSTIVPSLKHRLQRNVASLAWKPLSASVLAVACQSCILIWTLDPTSLSTRPSSGCAQVLSHPGHTPVTSLAWAPSGGRLLSASPVDAAIRVWDVSTETCVPLPWFRGGGVTNLLWSPDGSKILATTPSAVFRVWEAQMWTCERWPTLSGRCQTGCWSPDGSRLLFTVLGEPLIYSLSFPERCGEGKGCVGGAKSATIVADLSETTIQTPDGEERLGGEAHSMVWDPSGERLAVLMKGKPRVQDGKPVILLFRTRNSPVFELLPCGIIQGEPGAQPQLITFHPSFNKGALLSVGWSTGRIAHIPLYFVNAQFPRFSPVLGRAQEPPAGGGGSIHDLPLFTETSPTSAPWDPLPGPPPVLPHSPHSHL [AAAS]”, in data set [1], the “solubility in G1/S (log2)” value is -0.296. Besides, the melting temperature was determined as 53.6 °C in data set [2] (cell cycle stage: G1/S) and 51 °C in data set [2] (cell cycle stage: mitosis). Further, in data set [3], the “solubility change mitosis (log2)” value came to 0.0315. The thermal stability score is -4.87 in data set [4] (setting [5]) and -7.02 in data set [4] (cell cycle stage: mitosis).
